Results published in the Human Domainome abundance scans (Beltran et al. 2025).
± gives the uncertainty stated by the source.

B1: Nuclear receptor subfamily 4 group A member 2, residues 260 to 336; numbered along this chain, P43354 (parent)
chain: EGLCAVCGDNAACQHYGVRTCEGCKGFFKRTVQKNAKYVCLANKNCPVDKRRRNRCQYCRFQKCLAVGMVKEVVRTD
B2: Transcription elongation factor A N-terminal and central domain-containing protein, residues 30 to 77; numbered along this chain, Q8N8B7 (parent)
chain: LTELETIYVTKEHLQETDVVRAVYRVLKNCPSVALKKKAKCLLSKWKA

Variants of: B1
Assay: abundance fitness (aPCA) (normalised: wild type 0, dead -1); higher = more abundant; growth selection in yeast, the domain comes from the species named
Conditions: Homo sapiens

Abundance fitness of substitutions, site by site:
V73: A -0.258 ± 0.076, T 0.274 ± 0.43, M -0.032 ± 0.17, F 0.02 ± 0.074, H 0.014 ± 0.32, E -0.063 ± 0.086, G -0.024 ± 0.033, L -0.065 ± 0.08, W -0.104 ± 0.053, C -0.131 ± 0.071, D -0.105 ± 0.14, S -0.305 ± 0.17, R -0.099 ± 0.091
V67: R -0.134 ± 0.073, T -0.06 ± 0.14, M -0.035 ± 0.15, W -0.706 ± 0.098, S -0.097 ± 0.11, I 0.058 ± 0.12, L -0.078 ± 0.058, H -0.088 ± 0.3, K 0.086 ± 0.23
V70: E 0.062 ± 0.096, M -0.055 ± 0.18, I 0.102 ± 0.14, S -0.053 ± 0.097, A 0.06 ± 0.062, P -0.197 ± 0.18, F -0.095 ± 0.071, L -0.023 ± 0.058, G -0.017 ± 0.034, W -0.255 ± 0.055, R -0.013 ± 0.064, K -0.208 ± 0.43
G68: V -0.836 ± 0.089, A -0.26 ± 0.13, F -0.436 ± 0.12, R -0.314 ± 0.074, L -0.589 ± 0.11, N -0.126 ± 0.41, M -0.085 ± 0.29, S -0.287 ± 0.12, E -0.63 ± 0.2, D -0.403 ± 0.15, I -0.481 ± 0.28, C -0.489 ± 0.083
E72: W -0.276 ± 0.048, A -0.133 ± 0.11, T 0.092 ± 0.34, N 0.024 ± 0.16, C -0.344 ± 0.075, P 0.116 ± 0.14, G -0.067 ± 0.036, K 0.154 ± 0.23, D 0.11 ± 0.15, M -0.099 ± 0.17, L -0.468 ± 0.083, F -0.267 ± 0.09, S -0.012 ± 0.087, V -0.268 ± 0.049, I -0.173 ± 0.18
V74: A -0.1 ± 0.1, L -0.052 ± 0.065, S -0.101 ± 0.12, R -0.118 ± 0.11, G -0.013 ± 0.039, I 0.091 ± 0.13, C -0.098 ± 0.071, F -0.148 ± 0.13, K -0.025 ± 0.31, W -0.208 ± 0.066, D 0.131 ± 0.13
M69: G -0.463 ± 0.042, A -0.191 ± 0.092, R -0.64 ± 0.12, I -0.618 ± 0.34, E -0.448 ± 0.17, D -0.704 ± 0.27, L -0.07 ± 0.055, C -0.247 ± 0.06, V -0.285 ± 0.047, F -0.042 ± 0.069, S -0.627 ± 0.23, W -0.235 ± 0.053
K71: A 0.008 ± 0.081, Y 0.114 ± 0.15, E -0.046 ± 0.084, L -0.078 ± 0.058, I -0.19 ± 0.18, G -0.081 ± 0.035, Q 0.33 ± 0.43, R -0.054 ± 0.055, W -0.194 ± 0.059, F -0.258 ± 0.088, D -0.296 ± 0.38, P 0.141 ± 0.24, M -0.352 ± 0.2
T76: L -0.228 ± 0.071, A 0.117 ± 0.067, W -0.085 ± 0.053, N 0.221 ± 0.42, M -0.166 ± 0.17, V -0.019 ± 0.052, R 0.015 ± 0.068, F -0.079 ± 0.1, K -0.041 ± 0.18, Q -0.152 ± 0.19, P -0.004 ± 0.37, S -0.014 ± 0.1, D 0.098 ± 0.098, I -0.007 ± 0.19, Y 0.168 ± 0.13, C 0.109 ± 0.057, E 0.161 ± 0.13
D77: F -0.229 ± 0.15, P 0.163 ± 0.18, S -0.124 ± 0.12, A -0.006 ± 0.086, E 0.117 ± 0.14, G -0.042 ± 0.044, R -0.3 ± 0.089, K -0.1 ± 0.18, I -0.347 ± 0.31, V -0.122 ± 0.065, W -0.211 ± 0.075, C -0.061 ± 0.095, M -0.092 ± 0.14, L -0.101 ± 0.077
R75: Y -0.112 ± 0.19, W -0.103 ± 0.051, S 0.063 ± 0.12, E 0.094 ± 0.087, T 0.214 ± 0.37, V 0 ± 0.036, M 0.019 ± 0.13, L 0.015 ± 0.053, C 0.057 ± 0.055, I -0.017 ± 0.14, N 0 ± 0.39, D -0.136 ± 0.12, Q 0.065 ± 0.26, A -0.01 ± 0.075, G 0.033 ± 0.031

Variants of: B2
Assay: as above
Conditions: Homo sapiens

Abundance fitness, by site and new letter:
T10: G -0.164 ± 0.067, I -0.657 ± 0.43, N -0.546 ± 0.16, Q 0.117 ± 0.11, M -0.143 ± 0.12, K -0.198 ± 0.098, S -0.121 ± 0.084, Y -0.771 ± 0.22, L -0.674 ± 0.14, F -0.547 ± 0.22, E -0.139 ± 0.1, C -0.566 ± 0.18, D -0.31 ± 0.23, W -0.315 ± 0.095, R -0.041 ± 0.069, H -0.23 ± 0.36, V -0.18 ± 0.12, A -0.017 ± 0.079
I7: F -0.323 ± 0.17, M 0.244 ± 0.11, G 0.224 ± 0.065, Q 0.015 ± 0.11, D 0.203 ± 0.087, L -0.07 ± 0.079, T 0.192 ± 0.11, W -0.631 ± 0.12, V 0.006 ± 0.072, H -0.212 ± 0.36, S 0.147 ± 0.087, R 0.008 ± 0.069, A 0.131 ± 0.076, Y -0.422 ± 0.21, N 0.081 ± 0.16, P 0.091 ± 0.13, C -0.541 ± 0.13, E 0.3 ± 0.085
L4: D 0.257 ± 0.092, P 0.279 ± 0.11, T 0.269 ± 0.1, F -0.044 ± 0.1, N 0.469 ± 0.1, Y -0.325 ± 0.12, R 0.11 ± 0.058, C -0.51 ± 0.095, V -0.23 ± 0.072, M 0.022 ± 0.095, A 0.17 ± 0.083, S 0.216 ± 0.071, E 0.173 ± 0.072, K 0.272 ± 0.094, Q 0.142 ± 0.11, H 0.025 ± 0.089, I -0.174 ± 0.14
V9: K 0.251 ± 0.12, G 0.061 ± 0.072, H 0.107 ± 0.2, D 0.276 ± 0.11, T 0.087 ± 0.12, M -0.098 ± 0.12, C -0.172 ± 0.1, P -0.027 ± 0.13, W -0.277 ± 0.09, R 0.155 ± 0.068, E 0.318 ± 0.087, L -0.229 ± 0.082, S 0.085 ± 0.085, N 0.232 ± 0.12, Q 0.265 ± 0.096, I -0.163 ± 0.086, F 0.045 ± 0.16, Y -0.147 ± 0.12
E5: I -0.48 ± 0.12, K -0.393 ± 0.13, R -0.769 ± 0.1, P -0.663 ± 0.15, G -0.775 ± 0.089, M -0.643 ± 0.11, Y -0.604 ± 0.25, L -0.28 ± 0.08, C -0.897 ± 0.17, S -0.809 ± 0.12, N -0.587 ± 0.17, H -0.346 ± 0.18, A -0.235 ± 0.12, V -0.446 ± 0.1, T -1.17 ± 0.23, D -0.186 ± 0.12, Q -0.498 ± 0.18
E12: C -0.79 ± 0.17, I -0.707 ± 0.15, L -0.792 ± 0.096, K 0.138 ± 0.14, G -0.598 ± 0.086, A -0.492 ± 0.099, H -0.606 ± 0.17, N -0.34 ± 0.17, M -0.538 ± 0.12, P -0.25 ± 0.17, F -0.742 ± 0.16, Q -0.278 ± 0.13, R -0.24 ± 0.079, S -0.168 ± 0.091, D -0.184 ± 0.19
E3: H -0.696 ± 0.43, L -0.07 ± 0.095, Q -0.222 ± 0.17, D -0.209 ± 0.12, F 0.477 ± 0.16, Y -0.207 ± 0.16, V -0.102 ± 0.081, C 0.159 ± 0.11, G -0.416 ± 0.074, W 0.305 ± 0.084, S -0.149 ± 0.11, M -0.045 ± 0.16, I -0.112 ± 0.26, T -0.464 ± 0.15, P -0.45 ± 0.12, R -0.24 ± 0.083, K -0.195 ± 0.12, N -0.001 ± 0.46
L1: F -0.001 ± 0.25, W -0.554 ± 0.18, Q 0.202 ± 0.19, S -0.501 ± 0.31, M 0.235 ± 0.39, G 0.363 ± 0.23, R -0.202 ± 0.33, T 0.251 ± 0.3, V -0.379 ± 0.14, C -0.162 ± 0.15, Y -0.521 ± 0.21
T2: S 0.198 ± 0.11, Q -0.177 ± 0.11, V -0.813 ± 0.15, E 0.27 ± 0.12, F -0.483 ± 0.2, R 0.011 ± 0.08, I -0.369 ± 0.13, L -0.389 ± 0.1, D 0.107 ± 0.17, C -0.501 ± 0.18, P -0.629 ± 0.15, A -0.385 ± 0.11, G -0.078 ± 0.12, Y -0.078 ± 0.18, K 0.11 ± 0.12, M -0.461 ± 0.16, N 0.036 ± 0.25, W -0.711 ± 0.18
K11: I -0.08 ± 0.12, L -0.014 ± 0.079, N -0.627 ± 0.24, R -0.348 ± 0.075, M -0.246 ± 0.16, F -0.747 ± 0.22, D -0.021 ± 0.12, Y -0.599 ± 0.15, S -0.016 ± 0.086, T -0.555 ± 0.17, G -0.022 ± 0.066, C -0.337 ± 0.11, A 0.095 ± 0.1, Q -0.184 ± 0.13, E 0.145 ± 0.089
T6: D 0.094 ± 0.1, Q 0.08 ± 0.13, N -0.514 ± 0.21, M -0.107 ± 0.11, A -0.355 ± 0.086, E 0.126 ± 0.1, H -0.147 ± 0.15, G -0.024 ± 0.063, K -0.059 ± 0.096, C -0.262 ± 0.1, Y -0.513 ± 0.32, L -0.616 ± 0.091, R -0.074 ± 0.068, F -0.23 ± 0.12, I -0.891 ± 0.27, S 0.12 ± 0.082
Y8: V -0.008 ± 0.16, N -0.043 ± 0.26, F -0.339 ± 0.2, L -0.233 ± 0.17, E 0.448 ± 0.24, A 0.274 ± 0.17, G 0.156 ± 0.094, S -0.388 ± 0.28, R -0.094 ± 0.12, C -0.489 ± 0.38
